Measured values taken from doi:10.1101/2022.01.31.478465 (bioRxiv, 2022).

Molecular target: T1, AtPRP40b, recombinant (A. thaliana, UniProt F4JCC1 1-992)
T1 sequence: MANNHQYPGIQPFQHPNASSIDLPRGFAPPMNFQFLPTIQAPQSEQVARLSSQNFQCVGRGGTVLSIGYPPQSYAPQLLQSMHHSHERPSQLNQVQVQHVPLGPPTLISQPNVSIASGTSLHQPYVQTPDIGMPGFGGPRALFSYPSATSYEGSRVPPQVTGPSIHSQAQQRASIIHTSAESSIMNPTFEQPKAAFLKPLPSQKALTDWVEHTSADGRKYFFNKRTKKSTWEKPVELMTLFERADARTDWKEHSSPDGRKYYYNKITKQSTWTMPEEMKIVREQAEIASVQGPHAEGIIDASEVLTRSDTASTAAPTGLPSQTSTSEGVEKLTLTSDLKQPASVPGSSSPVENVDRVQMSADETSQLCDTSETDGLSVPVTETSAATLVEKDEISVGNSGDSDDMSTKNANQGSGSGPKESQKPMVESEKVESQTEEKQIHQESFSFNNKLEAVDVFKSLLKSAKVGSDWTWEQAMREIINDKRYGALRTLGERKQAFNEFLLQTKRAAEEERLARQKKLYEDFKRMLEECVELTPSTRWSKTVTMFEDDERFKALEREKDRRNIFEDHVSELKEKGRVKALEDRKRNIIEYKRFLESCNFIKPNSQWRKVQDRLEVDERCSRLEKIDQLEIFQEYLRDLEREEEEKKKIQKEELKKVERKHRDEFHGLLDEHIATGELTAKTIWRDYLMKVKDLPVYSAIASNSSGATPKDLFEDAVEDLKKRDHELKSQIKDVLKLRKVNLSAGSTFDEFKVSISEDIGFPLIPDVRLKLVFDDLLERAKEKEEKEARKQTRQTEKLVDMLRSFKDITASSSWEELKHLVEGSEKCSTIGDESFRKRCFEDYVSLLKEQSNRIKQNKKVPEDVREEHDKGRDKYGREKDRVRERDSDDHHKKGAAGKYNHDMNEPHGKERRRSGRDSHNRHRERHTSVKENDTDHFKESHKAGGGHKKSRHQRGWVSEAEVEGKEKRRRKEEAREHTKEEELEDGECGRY
Experiment: pull-down

binding result: binds
B1: SERRATE (SE), full length, recombinant (natural protein, A. thaliana, UniProt Q9ZVD0 1-720, looked up)
chain: MADVNLPPSDSVDNRLPEKSTSSSPPPPPPSSSLPQQEQEQDQQQLPLRRERDSRERRDERDIERPPPNRRERDRSPLPPPRRDYKRRPSLSPPPPYRDRRHSPPQRRSPPQKRYRRDDNGYDGRRGSPRGGYGPPDRRFGYDHGGGYDREMGGRPGYGDERPHGRFMGRYQDWEGGRGGYGDASNSGNPQRDGLMSYKQFIQELEDDILPSEAERRYQEYKSEYITTQKRAFFNTHKEEDWLKNKYHPTNLLSVIERRNDLAQKVAKDFLLDLQSGTLDLGPAVTALNKSGRTSEPNSEDEAAGVGKRKRHGMGGAKENELLSAAPKAPSFTSDPKRILTDVEQTQALVRKLDSEKKIEENVLQGSETEKSGREKLHSGSTGPVVIIRGLTSVKGLEGVELLDTLVTYLWRVHGLDYYGKVETNEAKGLRHVRAEGKVSDAKGDENESKFDSHWQERLKGQDPLEVMAAKEKIDAAATEALDPHVRKIRDEKYGWKYGCGAKGCTKLFHAAEFVYKHLKLKHTELVTELTTKVREELYFQNYMNDPNAPGGQPATQQSGPRDRPIRRKPSMENRLRDDRGGRRERDGRANGNDRNDRSEDQQRGDNDGGNPGEVGYDAFGGQGGVHVPPFLSDINPPPMLMPVPGAGPLGPFVPAPPEVAMQMFRDPSGPNPPFEGSGRGGPAPFLLSPAFRQDPRRLRSYQDLDAPEEEVTVIDYRSL
